These are literature values, as cited in PMC5012591.

In this series the target is flagellar motor switch protein FliM (Escherichia coli) (UniProt P06974).
Chain of UniProt P06974 (P06974 whole entry): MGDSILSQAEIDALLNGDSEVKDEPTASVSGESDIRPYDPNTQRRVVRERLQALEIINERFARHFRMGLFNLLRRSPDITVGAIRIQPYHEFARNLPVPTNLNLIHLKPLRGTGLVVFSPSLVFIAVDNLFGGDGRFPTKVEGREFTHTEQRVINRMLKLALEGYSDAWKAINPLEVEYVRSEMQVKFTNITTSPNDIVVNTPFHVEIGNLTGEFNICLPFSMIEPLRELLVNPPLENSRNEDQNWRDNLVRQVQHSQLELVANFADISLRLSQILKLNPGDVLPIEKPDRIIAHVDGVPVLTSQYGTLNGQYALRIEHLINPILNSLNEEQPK

As a reminder, the Kd is the free concentration of one partner at which half of the binding sites on the other are occupied at equilibrium, for simple one-to-one binding. As to CheY-P (from UniProt P0AE67), the Kd was 3.06 µM.
